Source: doi:10.1101/2024.03.12.584565 (bioRxiv, 2024)

How the values were obtained:
Assay in all cases: pull-down
[1] = target: T1, Flag-tagged Pds5b-WT, treated with Nek2a and Cdk1/2-cyclin A2 in vitro (human, UniProt Q9NTI5 1-1447)
T1 sequence: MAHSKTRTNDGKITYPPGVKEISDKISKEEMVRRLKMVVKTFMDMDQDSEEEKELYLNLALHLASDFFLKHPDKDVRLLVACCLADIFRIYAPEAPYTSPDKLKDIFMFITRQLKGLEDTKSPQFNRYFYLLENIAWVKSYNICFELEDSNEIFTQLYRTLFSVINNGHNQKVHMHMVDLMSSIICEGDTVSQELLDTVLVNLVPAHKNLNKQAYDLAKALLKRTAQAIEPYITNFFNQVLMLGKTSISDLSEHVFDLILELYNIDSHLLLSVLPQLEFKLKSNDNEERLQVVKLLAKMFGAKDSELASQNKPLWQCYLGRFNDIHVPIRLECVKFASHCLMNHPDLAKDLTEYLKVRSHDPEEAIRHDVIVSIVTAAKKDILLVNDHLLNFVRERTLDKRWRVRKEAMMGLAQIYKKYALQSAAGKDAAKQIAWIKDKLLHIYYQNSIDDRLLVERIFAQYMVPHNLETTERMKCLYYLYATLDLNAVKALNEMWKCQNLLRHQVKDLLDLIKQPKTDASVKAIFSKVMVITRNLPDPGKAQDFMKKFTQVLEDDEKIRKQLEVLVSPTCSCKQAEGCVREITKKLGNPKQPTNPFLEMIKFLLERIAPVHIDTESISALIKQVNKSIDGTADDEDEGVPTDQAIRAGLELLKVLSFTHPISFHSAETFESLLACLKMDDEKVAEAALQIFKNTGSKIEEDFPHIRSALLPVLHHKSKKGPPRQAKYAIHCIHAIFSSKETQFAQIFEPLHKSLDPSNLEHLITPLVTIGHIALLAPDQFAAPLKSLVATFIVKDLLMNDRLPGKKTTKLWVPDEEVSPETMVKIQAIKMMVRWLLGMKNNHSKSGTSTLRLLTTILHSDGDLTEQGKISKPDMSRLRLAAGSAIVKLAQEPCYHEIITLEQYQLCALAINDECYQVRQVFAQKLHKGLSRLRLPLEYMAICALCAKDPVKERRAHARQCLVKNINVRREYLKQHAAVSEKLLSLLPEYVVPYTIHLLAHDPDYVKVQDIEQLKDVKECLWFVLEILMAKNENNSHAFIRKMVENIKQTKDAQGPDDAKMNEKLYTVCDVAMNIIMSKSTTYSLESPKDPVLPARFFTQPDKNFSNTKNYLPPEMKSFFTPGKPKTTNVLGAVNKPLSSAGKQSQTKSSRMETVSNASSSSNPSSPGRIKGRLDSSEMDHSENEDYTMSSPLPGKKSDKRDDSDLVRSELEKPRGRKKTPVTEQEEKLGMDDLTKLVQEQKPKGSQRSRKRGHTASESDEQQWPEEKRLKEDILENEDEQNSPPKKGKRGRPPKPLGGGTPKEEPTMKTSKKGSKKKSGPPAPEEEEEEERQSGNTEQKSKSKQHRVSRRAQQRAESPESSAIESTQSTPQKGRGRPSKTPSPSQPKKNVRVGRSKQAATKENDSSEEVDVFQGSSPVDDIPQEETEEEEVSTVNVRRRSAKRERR

[2] = target: T2, Flag-tagged Pds5b, co-expressed with Nek2aΔMR (human, UniProt Q9NTI5 1-1447)
T2 sequence: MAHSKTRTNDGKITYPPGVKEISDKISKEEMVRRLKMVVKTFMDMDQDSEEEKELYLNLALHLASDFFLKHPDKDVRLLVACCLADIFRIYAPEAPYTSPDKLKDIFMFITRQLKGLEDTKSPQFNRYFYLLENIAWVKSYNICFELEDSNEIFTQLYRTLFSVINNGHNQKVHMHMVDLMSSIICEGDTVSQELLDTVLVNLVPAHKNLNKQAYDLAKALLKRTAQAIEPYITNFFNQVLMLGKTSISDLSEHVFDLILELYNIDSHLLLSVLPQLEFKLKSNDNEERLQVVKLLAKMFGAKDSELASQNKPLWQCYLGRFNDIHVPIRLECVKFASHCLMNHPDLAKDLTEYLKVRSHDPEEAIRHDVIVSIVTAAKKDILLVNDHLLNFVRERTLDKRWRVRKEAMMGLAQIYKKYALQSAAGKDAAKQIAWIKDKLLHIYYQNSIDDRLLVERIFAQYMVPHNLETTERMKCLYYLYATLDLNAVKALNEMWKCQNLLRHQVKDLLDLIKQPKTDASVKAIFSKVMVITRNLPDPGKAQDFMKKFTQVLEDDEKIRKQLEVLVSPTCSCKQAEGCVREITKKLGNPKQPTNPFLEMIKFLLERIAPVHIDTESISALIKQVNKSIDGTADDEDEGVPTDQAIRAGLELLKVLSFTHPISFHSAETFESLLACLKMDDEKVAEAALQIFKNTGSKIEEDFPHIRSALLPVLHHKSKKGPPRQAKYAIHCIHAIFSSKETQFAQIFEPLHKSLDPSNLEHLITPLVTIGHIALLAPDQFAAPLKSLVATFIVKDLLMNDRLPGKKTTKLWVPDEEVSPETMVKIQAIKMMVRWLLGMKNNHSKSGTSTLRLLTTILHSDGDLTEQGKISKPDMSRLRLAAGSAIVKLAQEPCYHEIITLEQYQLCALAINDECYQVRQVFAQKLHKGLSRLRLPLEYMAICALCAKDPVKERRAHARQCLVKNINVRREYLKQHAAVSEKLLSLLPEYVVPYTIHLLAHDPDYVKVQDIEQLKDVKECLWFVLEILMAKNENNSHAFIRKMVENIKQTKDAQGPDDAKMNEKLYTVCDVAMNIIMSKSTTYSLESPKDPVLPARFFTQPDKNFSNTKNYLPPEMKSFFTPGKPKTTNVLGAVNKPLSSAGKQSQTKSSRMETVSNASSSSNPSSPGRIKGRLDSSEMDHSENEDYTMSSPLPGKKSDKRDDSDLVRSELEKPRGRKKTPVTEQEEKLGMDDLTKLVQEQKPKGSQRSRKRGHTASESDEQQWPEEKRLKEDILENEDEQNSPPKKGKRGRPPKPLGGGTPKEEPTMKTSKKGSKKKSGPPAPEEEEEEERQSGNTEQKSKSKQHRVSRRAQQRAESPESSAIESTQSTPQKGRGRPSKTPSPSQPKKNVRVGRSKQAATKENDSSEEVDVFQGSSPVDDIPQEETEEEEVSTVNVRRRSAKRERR

[3] = target: T3, Flag-tagged Pds5b, co-expressed with Nek2aΔMR and Δ86-cyclin A2 (human, UniProt Q9NTI5 1-1447)
T3 sequence: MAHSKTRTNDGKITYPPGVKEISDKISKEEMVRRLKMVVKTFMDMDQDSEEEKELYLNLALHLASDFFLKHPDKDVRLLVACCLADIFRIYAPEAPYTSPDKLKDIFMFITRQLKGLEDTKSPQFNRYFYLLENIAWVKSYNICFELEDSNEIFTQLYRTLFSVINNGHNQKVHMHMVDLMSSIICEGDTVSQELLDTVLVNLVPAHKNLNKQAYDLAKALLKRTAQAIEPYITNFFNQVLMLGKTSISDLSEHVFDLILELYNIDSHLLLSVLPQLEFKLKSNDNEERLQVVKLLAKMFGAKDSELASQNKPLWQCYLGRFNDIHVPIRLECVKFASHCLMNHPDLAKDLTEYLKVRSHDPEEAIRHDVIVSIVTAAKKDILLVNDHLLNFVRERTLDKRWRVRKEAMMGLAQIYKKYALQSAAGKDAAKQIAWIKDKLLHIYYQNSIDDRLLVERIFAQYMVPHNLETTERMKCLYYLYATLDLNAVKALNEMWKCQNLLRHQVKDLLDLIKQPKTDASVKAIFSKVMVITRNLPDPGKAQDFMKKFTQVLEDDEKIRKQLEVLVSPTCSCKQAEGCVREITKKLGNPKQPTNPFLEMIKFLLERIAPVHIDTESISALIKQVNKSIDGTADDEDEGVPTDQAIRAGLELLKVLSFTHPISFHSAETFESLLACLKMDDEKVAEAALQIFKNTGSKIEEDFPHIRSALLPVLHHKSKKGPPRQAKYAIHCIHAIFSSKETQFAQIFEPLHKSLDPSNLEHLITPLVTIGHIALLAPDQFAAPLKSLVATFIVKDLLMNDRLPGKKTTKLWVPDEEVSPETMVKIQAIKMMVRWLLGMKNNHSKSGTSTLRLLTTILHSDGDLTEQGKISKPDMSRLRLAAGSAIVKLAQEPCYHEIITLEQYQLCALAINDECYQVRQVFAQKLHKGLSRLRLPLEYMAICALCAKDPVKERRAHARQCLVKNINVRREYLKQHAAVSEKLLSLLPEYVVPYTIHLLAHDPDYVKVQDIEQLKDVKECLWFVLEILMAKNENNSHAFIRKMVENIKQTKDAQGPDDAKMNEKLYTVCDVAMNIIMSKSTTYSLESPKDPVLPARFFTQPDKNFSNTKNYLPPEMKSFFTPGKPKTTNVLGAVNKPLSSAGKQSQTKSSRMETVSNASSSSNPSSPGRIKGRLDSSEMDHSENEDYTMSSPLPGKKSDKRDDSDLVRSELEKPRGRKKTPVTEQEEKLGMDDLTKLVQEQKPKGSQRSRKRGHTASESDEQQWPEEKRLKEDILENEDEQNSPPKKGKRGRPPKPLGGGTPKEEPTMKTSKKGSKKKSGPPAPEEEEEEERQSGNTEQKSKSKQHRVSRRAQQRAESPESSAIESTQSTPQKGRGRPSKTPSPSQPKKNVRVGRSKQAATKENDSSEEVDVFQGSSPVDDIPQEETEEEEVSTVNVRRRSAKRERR

Flag-tagged Pds5a = target: T4, Flag-tagged Pds5a (human, UniProt Q29RF7 1-1337)
T4 sequence: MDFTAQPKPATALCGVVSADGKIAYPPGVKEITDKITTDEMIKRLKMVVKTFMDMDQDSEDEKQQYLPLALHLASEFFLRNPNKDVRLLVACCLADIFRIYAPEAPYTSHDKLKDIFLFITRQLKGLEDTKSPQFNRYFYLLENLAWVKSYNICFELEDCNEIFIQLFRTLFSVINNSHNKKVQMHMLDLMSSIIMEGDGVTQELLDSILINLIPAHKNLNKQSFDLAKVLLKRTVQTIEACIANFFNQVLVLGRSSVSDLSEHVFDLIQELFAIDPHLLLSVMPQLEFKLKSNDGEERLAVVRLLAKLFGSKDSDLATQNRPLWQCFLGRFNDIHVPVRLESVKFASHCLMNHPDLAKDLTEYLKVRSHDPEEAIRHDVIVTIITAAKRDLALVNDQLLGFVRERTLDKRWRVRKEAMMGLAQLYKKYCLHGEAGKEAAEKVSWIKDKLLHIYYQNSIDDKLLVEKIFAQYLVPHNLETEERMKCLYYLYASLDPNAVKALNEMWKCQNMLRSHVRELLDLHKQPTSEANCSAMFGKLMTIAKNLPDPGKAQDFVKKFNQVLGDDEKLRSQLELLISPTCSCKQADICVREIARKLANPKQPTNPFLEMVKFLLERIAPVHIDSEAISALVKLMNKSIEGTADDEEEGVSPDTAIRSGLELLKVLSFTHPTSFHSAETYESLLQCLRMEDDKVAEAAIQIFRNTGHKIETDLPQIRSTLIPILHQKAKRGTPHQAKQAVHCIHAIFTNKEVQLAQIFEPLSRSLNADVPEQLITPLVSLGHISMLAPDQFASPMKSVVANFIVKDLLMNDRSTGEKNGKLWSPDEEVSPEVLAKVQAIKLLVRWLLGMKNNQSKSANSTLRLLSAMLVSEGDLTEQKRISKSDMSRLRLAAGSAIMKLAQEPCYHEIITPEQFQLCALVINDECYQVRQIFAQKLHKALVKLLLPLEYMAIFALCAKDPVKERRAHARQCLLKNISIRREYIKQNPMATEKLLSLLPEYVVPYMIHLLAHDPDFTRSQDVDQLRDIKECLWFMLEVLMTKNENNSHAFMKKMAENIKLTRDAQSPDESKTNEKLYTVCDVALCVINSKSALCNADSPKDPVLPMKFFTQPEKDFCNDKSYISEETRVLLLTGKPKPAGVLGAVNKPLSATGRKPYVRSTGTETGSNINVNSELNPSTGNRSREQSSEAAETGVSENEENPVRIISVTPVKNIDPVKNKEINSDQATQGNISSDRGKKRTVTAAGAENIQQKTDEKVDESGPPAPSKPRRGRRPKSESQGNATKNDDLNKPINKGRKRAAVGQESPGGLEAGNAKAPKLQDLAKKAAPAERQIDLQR

- binding result [1]: binds
- binding result [2]: binds
- binding result [3]: binds
- binding result (Flag-tagged Pds5a): binds
B1: recombinant human Wapl (natural protein)
chain: MTSRFGKTYSRKGGNGSSKFDEVFSNKRTTLSTKWGETTFMAKLGQKRPNFKPDIQEIPKKPKVEEESTGDPFGFDSDDESLPVSSKNLAQVKCSSYSESSEAAQLEEVTSVLEANSKISHVVVEDTVVSDKCFPLEDTLLGKEKSTNRIVEDDASISSCNKLITSDKVENFHEEHEKNSHHIHKNADDSTKKPNAETTVASEIKETNDTWNSQFGKRPESPSEISPIKGSVRTGLFEWDNDFEDIRSEDCILSLDSDPLLEMKDDDFKNRLENLNEAIEEDIVQSVLRPTNCRTYCRANKTKSSQGASNFDKLMDGTSQALAKANSESSKDGLNQAKKGGVSCGTSFRGTVGRTRDYTVLHPSCLSVCNVTIQDTMERSMDEFTASTPADLGEAGRLRKKADIATSKTTTRFRPSNTKSKKDVKLEFFGFEDHETGGDEGGSGSSNYKIKYFGFDDLSESEDDEDDDCQVERKTSKKRTKTAPSPSLQPPPESNDNSQDSQSGTNNAENLDFTEDLPGVPESVKKPINKQGDKSKENTRKIFSGPKRSPTKAVYNARHWNHPDSEELPGPPVVKPQSVTVRLSSKEPNQKDDGVFKAPAPPSKVIKTVTIPTQPYQDIVTALKCRREDKELYTVVQHVKHFNDVVEFGENQEFTDDIEYLLSGLKSTQPLNTRCLSVISLATKCAMPSFRMHLRAHGMVAMVFKTLDDSQHHQNLSLCTAALMYILSRDRLNMDLDRASLDLMIRLLELEQDASSAKLLNEKDMNKIKEKIRRLCETVHNKHLDLENITTGHLAMETLLSLTSKRAGDWFKEELRLLGGLDHIVDKVKECVDHLSRDEDEEKLVASLWGAERCLRVLESVTVHNPENQSYLIAYKDSQLIVSSAKALQHCEELIQQYNRAEDSICLADSKPLPHQNVTNHVGKAVEDCMRAIIGVLLNLTNDNEWGSTKTGEQDGLIGTALNCVLQVPKYLPQEQRFDIRVLGLGLLINLVEYSARNRHCLVNMETSCSFDSSICSGEGDDSLRIGGQVHAVQALVQLFLERERAAQLAESKTDELIKDAPTTQHDKSGEWQETSGEIQWVSTEKTDGTEEKHKKEEEDEELDLNKALQHAGKHMEDCIVASYTALLLGCLCQESPINVTTVREYLPEGDFSIMTEMLKKFLSFMNLTCAVGTTGQKSISRVIEYLEHC
